{"source": "patent US20260201396", "about": "“New LoxPsym Sites for Large-Scale Orthogonal Cre-Mediated Recombination” (VIB VZW, published 2026)"}
{"biological_target": "T1, Cre recombinase (Punavirus P1)", "T1 chain": "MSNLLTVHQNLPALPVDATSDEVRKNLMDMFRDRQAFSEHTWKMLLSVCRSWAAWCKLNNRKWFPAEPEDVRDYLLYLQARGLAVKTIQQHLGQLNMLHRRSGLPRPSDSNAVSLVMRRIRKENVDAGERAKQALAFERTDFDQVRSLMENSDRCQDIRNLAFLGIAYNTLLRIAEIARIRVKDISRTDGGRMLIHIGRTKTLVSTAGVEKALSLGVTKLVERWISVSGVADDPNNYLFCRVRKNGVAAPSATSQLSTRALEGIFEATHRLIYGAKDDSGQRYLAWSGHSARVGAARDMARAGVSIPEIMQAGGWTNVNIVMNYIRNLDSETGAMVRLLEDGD", "test": "cell_activity; as above", "text": "Similar to the development of the original LoxPsym site by Hoess et al. (1986 J Cell Biochem), we edited the spacer of the LoxP site to obtain new non-directional recombination sites. In doing so, we focused on altering the first three nucleotides of the spacer (FIG. 2), as it was shown before that changing the nucleotides at position 4 and 5 of the spacer (T and A respectively) prevents recombination (Hoess et al 1986). The last three nucleotides were adapted accordingly to ensure the spacer remained palindromic. As such, we were able to design maximally 63 new potential LoxPsym sites. To test if the Cre enzyme was still able to recombine the new LoxPsym variants, we conducted a fluorescent-based assay in yeast via genomic integration of a fluorescence cassette which was flanked by identical LoxPsym variants at both sites (FIGS. 3A and 3C). Recombination of functional LoxPsym variants enables the deletion of the fluorescence cassette. The fraction of non-fluorescent cells in the population after induction of Cre-mediated recombination, was used to determine the recombination efficiency of the new LoxPsym sites. To verify if this set-up is valid for estimation of the recombination efficiency, the dual-fluorescent-reporter system shown in FIG. 3A was used to assess the frequency of inversion/deletion over time. […] Recombination efficiencies largely altered between different LoxPsym variants (Table 1). 63 new LoxPsym variants were obtained with altering recombination efficiencies ranging from 13% to 89%.", "units": {"activity": "%"}}
{"binder": "LoxPsym-CGC (dsDNA) DNA 1: ATAACTTCGTATACGCTAGCGTATACGAAGTTAT DNA 2: ATAACTTCGTATACGCTAGCGTATACGAAGTTAT", "activity": 69.4}
{"binder": "LoxPsym-CCG (dsDNA) DNA 1: ATAACTTCGTATACCGTACGGTATACGAAGTTAT DNA 2: ATAACTTCGTATACCGTACGGTATACGAAGTTAT", "activity": 76}
{"binder": "LoxPsym-CGG (dsDNA) DNA 1: ATAACTTCGTATACGGTACCGTATACGAAGTTAT DNA 2: ATAACTTCGTATACGGTACCGTATACGAAGTTAT", "activity": 81.5}
{"binder": "LoxPsym-TCC (dsDNA) DNA 1: ATAACTTCGTATATCCTAGGATATACGAAGTTAT DNA 2: ATAACTTCGTATATCCTAGGATATACGAAGTTAT", "activity": 80}
{"binder": "LoxPsym-GGA (dsDNA) DNA 1: ATAACTTCGTATAGGATATCCTATACGAAGTTAT DNA 2: ATAACTTCGTATAGGATATCCTATACGAAGTTAT", "activity": 37.1}
{"binder": "LoxPsym-GGT (dsDNA) DNA 1: ATAACTTCGTATAGGTTAACCTATACGAAGTTAT DNA 2: ATAACTTCGTATAGGTTAACCTATACGAAGTTAT", "activity": 38}
{"binder": "LoxPsym-TGT (dsDNA) DNA 1: ATAACTTCGTATATGTTAACATATACGAAGTTAT DNA 2: ATAACTTCGTATATGTTAACATATACGAAGTTAT", "activity": 82.4}
{"binder": "LoxPsym-CAG (dsDNA) DNA 1: ATAACTTCGTATACAGTACTGTATACGAAGTTAT DNA 2: ATAACTTCGTATACAGTACTGTATACGAAGTTAT", "activity": 79.9}
{"binder": "LoxPsym-TGC (dsDNA) DNA 1: ATAACTTCGTATATGCTAGCATATACGAAGTTAT DNA 2: ATAACTTCGTATATGCTAGCATATACGAAGTTAT", "activity": 72}
{"binder": "LoxPsym-TAC (dsDNA) DNA 1: ATAACTTCGTATATACTAGTATATACGAAGTTAT DNA 2: ATAACTTCGTATATACTAGTATATACGAAGTTAT", "activity": 75.3}
{"binder": "LoxPsym-CAT (dsDNA) DNA 1: ATAACTTCGTATACATTAATGTATACGAAGTTAT DNA 2: ATAACTTCGTATACATTAATGTATACGAAGTTAT", "activity": 79.1}
{"binder": "LoxPsym-TTA (dsDNA) DNA 1: ATAACTTCGTATATTATATAATATACGAAGTTAT DNA 2: ATAACTTCGTATATTATATAATATACGAAGTTAT", "activity": 35.8}
{"binder": "LoxPsym-TTG (dsDNA) DNA 1: ATAACTTCGTATATTGTACAATATACGAAGTTAT DNA 2: ATAACTTCGTATATTGTACAATATACGAAGTTAT", "activity": 80.6}
{"binder": "LoxPsym-TAG (dsDNA) DNA 1: ATAACTTCGTATATAGTACTATATACGAAGTTAT DNA 2: ATAACTTCGTATATAGTACTATATACGAAGTTAT", "activity": 70.3}
{"binder": "LoxPsym-TAT (dsDNA) DNA 1: ATAACTTCGTATATATTAATATATACGAAGTTAT DNA 2: ATAACTTCGTATATATTAATATATACGAAGTTAT", "activity": 89.3}
{"binder": "LoxPsym-ACT (dsDNA) DNA 1: ATAACTTCGTATAACTTAAGTTATACGAAGTTAT DNA 2: ATAACTTCGTATAACTTAAGTTATACGAAGTTAT", "activity": 70.5}
{"binder": "LoxPsym-GCT (dsDNA) DNA 1: ATAACTTCGTATAGCTTAAGCTATACGAAGTTAT DNA 2: ATAACTTCGTATAGCTTAAGCTATACGAAGTTAT", "activity": 37.2}
{"binder": "LoxPsym-AAT (dsDNA) DNA 1: ATAACTTCGTATAAATTAATTTATACGAAGTTAT DNA 2: ATAACTTCGTATAAATTAATTTATACGAAGTTAT", "activity": 71.1}
{"binder": "LoxPsym-GAT (dsDNA) DNA 1: ATAACTTCGTATAGATTAATCTATACGAAGTTAT DNA 2: ATAACTTCGTATAGATTAATCTATACGAAGTTAT", "activity": 36.9}
{"binder": "LoxPsym-GCG (dsDNA) DNA 1: ATAACTTCGTATAGCGTACGCTATACGAAGTTAT DNA 2: ATAACTTCGTATAGCGTACGCTATACGAAGTTAT", "activity": 79.2}
